In PMC8786347 (Oncoimmunology, 2022):

Tests used:
Assay in all cases: ELISA
CD27-huFc = molecular target: T1, CD27-huFc (UniProt P26842 20-191)
T1 sequence (looked up): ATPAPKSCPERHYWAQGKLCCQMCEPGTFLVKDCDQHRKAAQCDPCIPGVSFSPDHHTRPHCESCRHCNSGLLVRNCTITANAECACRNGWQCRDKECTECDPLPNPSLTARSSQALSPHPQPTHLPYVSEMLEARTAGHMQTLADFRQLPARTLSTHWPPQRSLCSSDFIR

CD27-moFc = molecular target: T2, CD27-moFc (UniProt P26842 20-191)
T2 sequence (looked up): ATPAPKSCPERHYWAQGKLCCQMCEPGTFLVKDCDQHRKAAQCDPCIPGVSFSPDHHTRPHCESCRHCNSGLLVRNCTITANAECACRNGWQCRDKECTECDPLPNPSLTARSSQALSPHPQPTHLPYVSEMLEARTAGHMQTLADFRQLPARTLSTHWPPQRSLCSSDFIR

OX40-moFc = molecular target: T3, OX40-moFc (UniProt P43489 29-214)
T3 sequence (looked up): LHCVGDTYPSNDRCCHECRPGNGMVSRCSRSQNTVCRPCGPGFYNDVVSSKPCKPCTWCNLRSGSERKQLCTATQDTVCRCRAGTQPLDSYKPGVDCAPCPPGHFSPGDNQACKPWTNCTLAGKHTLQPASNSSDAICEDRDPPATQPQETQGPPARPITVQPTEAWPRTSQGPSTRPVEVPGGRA

Measured: EC50

B1: scCD27L-scOX40L-Fc (Fc fusion, human)
chain 1: SLGWDVAELQLNHTGPQQDPRLYWQGGPALGRSFLHGPELDKGQLRIHRDGIYMVHIQVTLAICSSTTASRHHPTTLAVGICSPASRSISLLRLSFHQGCTIASQRLTPLARGDTLCTNLTGTLLPSRNTDETFFGVQWVRPGGSLGWDVAELQLNHTGPQQDPRLYWQGGPALGRSFLHGPELDKGQLRIHRDGIYMVHIQVTLAICSSTTASRHHPTTLAVGICSPASRSISLLRLSFHQGCTIASQRLTPLARGDTLCTNLTGTLLPSRNTDETFFGVQWVRPGGSLGWDVAELQLNHTGPQQDPRLYWQGGPALGRSFLHGPELDKGQLRIHRDGIYMVHIQVTLAICSSTTASRHHPTTLAVGICSPASRSISLLRLSFHQGCTIASQRLTPLARGDTLCTNLTGTLLPSRNTDETFFGVQWVRP
chain 2: QVSHRYPRIQSIKVQFTEYKKEKGFILTSQKEDEIMKVQNNSVIINCDGFYLISLKGYFSQEVNISLHYQKDEEPLFQLKKVRSVNSLMVASLTYKDKVYLNVTTDNTSLDDFHVNGGELILIHQNPGEFCVLGGGGSGGGGSGGGGSQVSHRYPRIQSIKVQFTEYKKEKGFILTSQKEDEIMKVQNNSVIINCDGFYLISLKGYFSQEVNISLHYQKDEEPLFQLKKVRSVNSLMVASLTYKDKVYLNVTTDNTSLDDFHVNGGELILIHQNPGEFCVLGGGGSGGGGSGGGGSQVSHRYPRIQSIKVQFTEYKKEKGFILTSQKEDEIMKVQNNSVIINCDGFYLISLKGYFSQEVNISLHYQKDEEPLFQLKKVRSVNSLMVASLTYKDKVYLNVTTDNTSLDDFHVNGGELILIHQNPGEFCVL
0.3 nM: all assays above
